Test results: the supplement of paper PMC11780869

Tested on: Bacillus subtilis
Assay: cleaved RNA product abundance (RNA/gDNA barcode ratio) relative to median wild-type variant (ratio to wild type); higher = more accumulation of the downstream cleavage product
Conditions: experiment (reporter, strain, medium): exp 8a: truncated aprE reporter, strain BJT201 with 2% xylose (RNase J1 expressed); cleavage site: glnRA (positions -5 to +31 mutated)
Procedure, shortened: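 Truncated aprE or tetM reporter mRNAs with barcoded RNase Y cleavage-site windows, mutagenized from oligos at a 9% error rate, sat in the B. subtilis chromosome. Cells grew in LB at 37°C from OD600 0.0003 to 0.3. Gel-selected cleaved RNA was reverse transcribed and its barcodes sequenced with those from genomic DNA, collapsing by UMI. Cleaved product abundance equals the RNA:gDNA barcode ratio per construct over the median construct with the unmutated site.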

CGACATGTCCCGCTTCTTTCATTAATCCGTTAACAACTGTTTTGCTATATACAATTACCTTTTAAGAGGAGGAAT
cleaved RNA product abundance: 0.242

CGACATGTCCCGCTTCTTTCATTAATCCGTTAACAACTGTTTTGCTATATACACTTACCTTTTAAGAGGAGGAAT
cleaved RNA product abundance: 0.329

CGACATGTCCCGCTTCTTTCATTAATCCGTTAACAACTGTTTTGCTATATACATATACCTTTTAAGAGGAGGAAT
cleaved RNA product abundance: 0.195

CGACATGTCCCGCTTCTTTCATTAATCCGTTAACAACTGTTTTGCTATATACATTTAACTTTTAAGAGGAGGAAT
cleaved RNA product abundance: 0.24

CGACATGTCCCGCTTCTTTCATTAATCCGTTAACAACTGTTTTGCTATATACATTTACATTTTAAGAGGAGGAAT
cleaved RNA product abundance: 0.202

CGACATGTCCCGCTTCTTTCATTAATCCGTTAACAACTGTTTTGCTATATACATTTACCATTTAAGAGGAGGAAT
cleaved RNA product abundance: 0.176

CGACATGTCCCGCTTCTTTCATTAATCCGTTAACAACTGTTTTGCTATATACATTTACCCTTTAAGAGGAGGAAT
cleaved RNA product abundance: 0.198

CGACATGTCCCGCTTCTTTCATTAATCCGTTAACAACTGTTTTGCTATATACATTTACCTTTTAAGAGGAGGAAT
cleaved RNA product abundance: 0.217

CGACATGTCCCGCTTCTTTCATTAATCCGTTAACAACTGTTTTGCTATATACATTTACTTTTTAAGAGGAGGAAT
cleaved RNA product abundance: 0.253

CGACATGTCCCGCTTCTTTCATTAATCCGTTAACAACTGTTTTGCTATATACATTTAGCTTTTAAGAGGAGGAAT
cleaved RNA product abundance: 0.204

CGACATGTCCCGCTTCTTTCATTAATCCGTTAACAACTGTTTTGCTATATACATTTATCTTTTAAGAGGAGGAAT
cleaved RNA product abundance: 0.236

CGACATGTCCCGCTTCTTTCATTAATCCGTTAACAACTGTTTTGCTATATACATTTCCCTTTTAAGAGGAGGAAT
cleaved RNA product abundance: 0.155

CGACATGTCCCGCTTCTTTCATTAATCCGTTAACAACTGTTTTGCTATATACATTTGCATTTTAAGAGGAGGAAT
cleaved RNA product abundance: 0.202

CGACATGTCCCGCTTCTTTCATTAATCCGTTAACAACTGTTTTGCTATATACATTTTCCTTTTAAGAGGAGGAAT
cleaved RNA product abundance: 0.0904

CGACATGTCCCGCTTCTTTCATTAATCCGTTAACAACTGTTTTGCTATATAGATTTACCTTTTAAGAGGAGGAAT
cleaved RNA product abundance: 0.201

CGACATGTCCCGCTTCTTTCATTAATCCGTTAACAACTGTTTTGCTATATATATTTACCTTTTAAGAGGAGGAAT
cleaved RNA product abundance: 0.2

CGACATGTCCCGCTTCTTTCATTAATCCGTTAACAACTGTTTTGCTGTATACATTTACCTTTTAAGAGGAGGAAT
cleaved RNA product abundance: 0.166

CGACATGTCCCGCTTCTTTCATTAATCCGTTAACAACTGTTTTGGTATATACATATAGCTTTTAAGAGGAGGAAT
cleaved RNA product abundance: 0.275

CGACATGTCCCGCTTCTTTCATTAATCCGTTAACAACTGTTTTGTTATATACATTTACCTTTTAAGAGGAGGAAT
cleaved RNA product abundance: 0.271

CGACATGTCCCGCTTCTTTCATTAATCCGTTAACAACTGTTTTTCTATATACATATACCTTTTAAGAGGAGGAAT
cleaved RNA product abundance: 0.304

CGACATGTCCCGCTTCTTTCATTAATCCGTTAACAACTGTTTTTCTATATACATTTACCTTTTAAGAGGAGGAAT
cleaved RNA product abundance: 0.258

CGACATGTCCCGCTTCTTTCATTAATCCGTTAACAACTTTTTTGCTATATACATTTACCTTTTAAGAGGAGGAAT
cleaved RNA product abundance: 0.193

CGACATGTCCCGCTTCTTTCATTAATCCGTTAACAATTGTTTTGCTACATACATTTACCTTTTAAGAGGAGGAAT
cleaved RNA product abundance: 0.135

CGACATGTCCCGCTTCTTTCATTAATCCGTTAACAATTGTTTTGCTATATACATTTACCTTTTAAGAGGAGGAAT
cleaved RNA product abundance: 0.241

CGACATGTCCCGCTTCTTTCATTAATCCGTTAACACCTGTTTTGCTATATACATTTACCTTTTAAGAGGAGGAAT
cleaved RNA product abundance: 0.258

CGACATGTCCCGCTTCTTTCATTAATCCGTTAACATCTGTTTTGCTATATACATTTACCTTTTAAGAGGAGGAAT
cleaved RNA product abundance: 0.25

CGACATGTCCCGCTTCTTTCATTAATCCGTTAACTACTGTTTTGCTATATACATTTACCTTTTAAGAGGAGGAAT
cleaved RNA product abundance: 0.265

CGACATGTCCCGCTTCTTTCATTAATCCGTTAATAACTGTTTTGCTATATACATTTAACTTTTAAGAGGAGGAAT
cleaved RNA product abundance: 0.205

CGACATGTCCCGCTTCTTTCATTAATCCGTTAATAACTGTTTTGCTATATACATTTACCTTTTAAGAGGAGGAAT
cleaved RNA product abundance: 0.262

CGACATGTCCCGCTTCTTTCATTAATCCGTTACCAAATGTTTTGCTATATACATTTACCTTTTAAGAGGAGGAAT
cleaved RNA product abundance: 0.256

CGACATGTCCCGCTTCTTTCATTAATCCGTTACCAACAGTTTTGCTATATACATTTACCTTTTAAGAGGAGGAAT
cleaved RNA product abundance: 0.215

CGACATGTCCCGCTTCTTTCATTAATCCGTTACCAACTATTTTGCTATATACATTTACCTTTTAAGAGGAGGAAT
cleaved RNA product abundance: 0.178

CGACATGTCCCGCTTCTTTCATTAATCCGTTACCAACTCTTTTGCTATATACATTTACCTTTTAAGAGGAGGAAT
cleaved RNA product abundance: 0.128

CGACATGTCCCGCTTCTTTCATTAATCCGTTACCAACTGATTTGCTATATACATTTACCTTTTAAGAGGAGGAAT
cleaved RNA product abundance: 0.205

CGACATGTCCCGCTTCTTTCATTAATCCGTTACCAACTGTGTTGCTATATACATTTACCTTTTAAGAGGAGGAAT
cleaved RNA product abundance: 0.277

CGACATGTCCCGCTTCTTTCATTAATCCGTTACCAACTGTTATGCTATATACATTTACCTTTTAAGAGGAGGAAT
cleaved RNA product abundance: 0.307

CGACATGTCCCGCTTCTTTCATTAATCCGTTACCAACTGTTGTGCTATATACATTTACCTTTTAAGAGGAGGAAT
cleaved RNA product abundance: 0.182

CGACATGTCCCGCTTCTTTCATTAATCCGTTACCAACTGTTTAGCTATATACATTTACCTTTTAAGAGGAGGAAT
cleaved RNA product abundance: 0.208

CGACATGTCCCGCTTCTTTCATTAATCCGTTACCAACTGTTTTACTATATACATTTACCTTTTAAGAGGAGGAAT
cleaved RNA product abundance: 0.204

CGACATGTCCCGCTTCTTTCATTAATCCGTTACCAACTGTTTTCCTATATACATTTACCTTTTAAGAGGAGGAAT
cleaved RNA product abundance: 0.203

CGACATGTCCCGCTTCTTTCATTAATCCGTTACCAACTGTTTTGATATATACATTTACCTTTTAAGAGGAGGAAT
cleaved RNA product abundance: 0.276

CGACATGTCCCGCTTCTTTCATTAATCCGTTACCAACTGTTTTGCAATATACATTTACCTTTTAAGAGGAGGAAT
cleaved RNA product abundance: 0.26

CGACATGTCCCGCTTCTTTCATTAATCCGTTACCAACTGTTTTGCCATATACATTTACCTTTTAAGAGGAGGAAT
cleaved RNA product abundance: 0.145

CGACATGTCCCGCTTCTTTCATTAATCCGTTACCAACTGTTTTGCGATATACATTTACCTTTTAAGAGGAGGAAT
cleaved RNA product abundance: 0.264

CGACATGTCCCGCTTCTTTCATTAATCCGTTACCAACTGTTTTGCTAAATACATTTACCTTTTAAGAGGAGGAAT
cleaved RNA product abundance: 0.169

CGACATGTCCCGCTTCTTTCATTAATCCGTTACCAACTGTTTTGCTACATACATTTACCTTTTAAGAGGAGGAAT
cleaved RNA product abundance: 0.326

CGACATGTCCCGCTTCTTTCATTAATCCGTTACCAACTGTTTTGCTATACACATTTACCTTTTAAGAGGAGGAAT
cleaved RNA product abundance: 0.212

CGACATGTCCCGCTTCTTTCATTAATCCGTTACCAACTGTTTTGCTATATAAATTTACCTTTTAAGAGGAGGAAT
cleaved RNA product abundance: 0.163

CGACATGTCCCGCTTCTTTCATTAATCCGTTACCAACTGTTTTGCTATATACAATTACCTTTTAAGAGGAGGAAT
cleaved RNA product abundance: 0.181

CGACATGTCCCGCTTCTTTCATTAATCCGTTACCAACTGTTTTGCTATATACATCTACCTTTTAAGAGGAGGAAT
cleaved RNA product abundance: 0.23
